The experiment addresses Xklp2 (Xenopus kinesin-like protein 2), endogenous full-length protein (Xenopus (endogenous in Xenopus egg extract)) (UniProt Q91785). The experiment is described as follows: SEC + other: sucrose gradient centrifugation.

Our source for the stoichiometry N values is publication PMC2148133.

Take “Xklp2 (Xenopus kinesin-like protein 2), endogenous full-length protein (from UniProt Q91785 1-1388) (natural protein)”: the stoichiometry N came out at 2.
